Reference: paper PMC5716189, “Characterization of the APLF FHA–XRCC1 phosphopeptide interaction and its structural and functional implications” (Nucleic Acids Research, 2017)

What was measured:
[1] = target: XRCC4pSpT-12 none (pSer232; pThr233) (UniProt Q13426); assay: 1D 31P NMR pH titration of the free phosphopeptide (600 MHz); settings: pH 4.0-8.5, 35°C, no added NaCl (50 mM sodium acetate, 50 mM sodium cacodylate)
[2] = target: XRCC1pSpT-9 none (pSer518; pThr519) (UniProt P18887); assay: as above; settings: pH 4.0-8.5, 35°C, no added NaCl (50 mM sodium acetate, 50 mM sodium cacodylate)
XRCC1 (Homo sapiens) = XRCC1 (Homo sapiens) (UniProt P18887); assay: fluorescence; settings: cited from earlier work
[3] = target: XRCC1 tetraphosphorylated peptide (Homo sapiens) (UniProt P18887); settings: cited from earlier work
[4] = target: XRCC1pSpT-18 (unlabelled, NMR samples) none (pSer518; pThr519) (UniProt P18887); assay: 1H,15N-HSQC titration with 1H lineshape simulation (500 MHz); settings: pH 7.4, 35°C, 150 mM NaCl, 25 mM HEPES, 25 mM MES
Sequence of XRCC1pSpT-18 (unlabelled, NMR samples) none (pSer518; pThr519) (P18887 whole entry): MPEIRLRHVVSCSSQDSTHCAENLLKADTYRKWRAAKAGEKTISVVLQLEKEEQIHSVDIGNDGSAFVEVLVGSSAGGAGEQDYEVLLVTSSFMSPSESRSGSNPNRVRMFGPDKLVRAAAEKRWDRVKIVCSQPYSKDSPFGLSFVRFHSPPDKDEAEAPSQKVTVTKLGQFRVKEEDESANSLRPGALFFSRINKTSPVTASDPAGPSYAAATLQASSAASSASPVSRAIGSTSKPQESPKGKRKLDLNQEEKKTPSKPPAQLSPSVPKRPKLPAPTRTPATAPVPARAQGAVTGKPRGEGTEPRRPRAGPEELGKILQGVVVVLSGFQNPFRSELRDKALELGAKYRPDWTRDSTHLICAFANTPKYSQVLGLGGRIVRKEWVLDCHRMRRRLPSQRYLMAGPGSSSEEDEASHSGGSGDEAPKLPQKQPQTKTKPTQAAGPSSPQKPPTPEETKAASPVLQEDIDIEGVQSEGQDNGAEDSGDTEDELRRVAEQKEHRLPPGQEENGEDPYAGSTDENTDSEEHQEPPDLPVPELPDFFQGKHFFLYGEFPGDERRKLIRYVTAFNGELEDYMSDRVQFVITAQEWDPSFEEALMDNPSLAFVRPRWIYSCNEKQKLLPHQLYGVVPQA

Sequence of XRCC4pSpT-12 none (pSer232; pThr233) (Q13426 whole entry): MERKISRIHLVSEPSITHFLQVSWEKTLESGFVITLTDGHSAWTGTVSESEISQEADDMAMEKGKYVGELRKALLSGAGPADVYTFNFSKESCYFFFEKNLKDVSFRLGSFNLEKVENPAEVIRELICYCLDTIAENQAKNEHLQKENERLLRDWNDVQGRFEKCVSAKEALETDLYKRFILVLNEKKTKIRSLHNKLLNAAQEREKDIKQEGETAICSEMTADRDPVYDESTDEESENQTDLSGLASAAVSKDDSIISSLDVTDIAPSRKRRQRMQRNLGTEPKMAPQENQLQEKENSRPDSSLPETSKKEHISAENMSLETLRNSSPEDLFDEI
Sequence of XRCC1pSpT-9 none (pSer518; pThr519) (P18887 whole entry): as the sequence (P18887 whole entry) above
Sequence of XRCC1 tetraphosphorylated peptide (Homo sapiens) (P18887 whole entry): as the sequence (P18887 whole entry) above
Sequence of XRCC1 (Homo sapiens) (P18887 whole entry): as above

For APLF FHA domain, the pK, pSer232 phosphate of XRCC4pSpT-12 [1] was 6.9 pH units, the pK, pThr233 phosphate of XRCC4pSpT-12 [1] was 7.22 pH units and the pK, pSer518 phosphate of XRCC1pSpT-9 [2] was 6.56 pH units. For the same substance, the pK, pThr519 phosphate of XRCC1pSpT-9 [2] was 6.86 pH units.
For PNKP FHA (from UniProt Q96T60), the Kd (XRCC1 (Homo sapiens)) is listed as 3.5 nM and the Kd [3] is listed as 140 nM.
For U-[15N] APLF FHA domain, the “τB (lifetime of the protein-peptide complex)” value [4] was 0.9 ms.
